Patent US20160060340A1 (Kyowa Kirin, published 2016)
Values belong to the binder of their own block, whether it stands above or below them.

How the values were obtained:
[1] = biological target: T1, Rat2-FOLR1-mycHis (human with a rat segment); experiment: ELISA as in Example 35, antigen coated; x indicates that no reaction occurred
T1 construct: also called rat/human chimeric FOLR1-mycHis (human 55-62 replaced by rat 53-60)
Protocol: (§1) First, each 50 μL/well of FOLR1-mycHis, Rat1-FOLR1-mycHis, Rat2-FOLR1-mycHis, and Rat4-FOLR1-mycHis which were prepared at a concentration of 10 μg/mL using PBS was […] in a 96-well plate for ELISA, and then incubated at 4° C. overnight. Each well was washed with PBS, and then 200 μL/well of 1% BSA/PBS was added at room temperature for 1 hour for blocking.
(§2) In the same manner as in Example 35, reactivities of ChRA15-7Acc antibody, MORAb-003 antibody, MOv18 antibody, and HuRA15-7CTAcc antibody were evaluated using FOLR1-mycHis prepared in Example 11 and Rat1-FOLR1-mycHis, Rat2-FOLR1-mycHis, Rat4-FOLR1-mycHis prepared in Example 34.

[2] = biological target: T2, FOLR1-mycHis (human, UniProt P15328 25-233); experiment: SPR as in Example 29, antibody captured, FOLR1-mycHis as analyte, 1:1 binding model
T2 construct: Secreted from CHO/DG44 cells, purified on Ni-NTA; Residues 1-233 include the native signal peptide; also called non-reducing FOLR1-mycHis; recombinant protein having myc and His tag at the C-terminus of FOLR1 (1-233 amino acids); not shown: myc and His tag at the C-terminus
Protocol: (§3) The affinities of ChRA15-7Acc antibody and MORAb-003 antibody for FOLR1 were measured by a surface plasmon resonance method. The measurement was carried out in the same manner as in Example 16, except that a Human Antibody Capture Kit (GE Healthcare) was immobilized onto the CM5 chip by amine coupling and FOLR1-mycHis prepared by five-step dilution (12.3, 37, 111, 333, 1000 ng/mL) was applied as an analyte.
In the same manner as in Example 29, affinity of HuRA15-7CTAcc antibody for FOLR1 was measured by the surface plasmon resonance method.

[3] = biological target: T3, Rat4-FOLR1-mycHis (human with a rat segment); experiment: ELISA as in Example 35, antigen coated; white circle indicates that reaction occurred
T3 construct: also called rat/human chimeric FOLR1-mycHis (human 91-95 replaced by rat 89-93)
Protocol: as §1, §2

[4] = biological target: T4, cynomolgus monkey FOLR1 (on JTC-12 cells) (cynomolgus monkey, UniProt P15328 25-234 (human entry)); experiment: flow cytometry on cynomolgus monkey kidney-derived cell line JTC-12
T4 construct: Endogenous FOLR1 of the cynomolgus monkey kidney-derived cell line JTC-12; also called CyFOLR1
Protocol: Subsequently, the cells were seeded in a 96-well plate at a density of 2×10⁵ cells/well, followed by centrifugation at 1500 rpm for 1 minute. After the supernatant was discarded, 50 μL of RA15-7 culture supernatant was added to each well, and allowed to react at 4° C. for 30 minutes.
Cells were washed, and then Alexa488-labeled anti-rat IgG(H+L) polyclonal antibody (Invitrogen) diluted in 1% BSA/PBS was added thereto, and they were allowed to react at 4° C. for 30 minutes. The cells were washed again, and then suspended in 1% BSA/PBS, and fluorescent intensity was analyzed by flow cytometry.
In the same manner, the reactivity of the RA15-7 culture supernatant to cynomolgus monkey kidney-derived cell line JTC-12 (RCB1485, RIKEN CELL BANK) was also analyzed by flow cytometry.

[5] = biological target: T2, FOLR1-mycHis; experiment: SPR (Biacore T100), antibody of the supernatant captured on CM5 chip, FOLR1-mycHis as analyte, single-cycle kinetics, 1:1 binding model
Text: After cloning, the hybridoma culture supernatant was used to measure its affinity for FOLR1 by a surface plasmon resonance method. As instruments for measurement, Biacore T100 (GE Healthcare), and CM5 chip (GE Healthcare) were used. First, Mouse Antibody Capture Kit (GE Healthcare) was immobilized onto the CM5 chip by amine coupling.
Subsequently, the hybridoma culture supernatant was applied using HBS-EP+buffer (GE Healthcare), and the antibodies contained in the supernatant were captured on the CM5 chip. Subsequently, FOLR1-mycHis prepared by five-step dilution (188, 375, 750, 1500, 3000 ng/mL) was applied as an analyte.
(§4) The affinity was analyzed from association constant (Ka) and dissociation constant (Kd) by Single-cycle kinetics. Kinetic constants (ka, kd, KD) were calculated by 1:1 binding model using a Biacore T-100 Evaluation software (GE Healthcare).

[6] = biological target: T5, cynomolgus monkey FOLR1-Fc (cynomolgus monkey; human); experiment: ELISA: antibody captured by anti-rat IgG, Fc fusion added, anti-human IgG-POD
T5 construct: Expressed in CHO/Ms704 cells; also called CyFOLR1-Fc; not shown: Human IgG1 Fc (Hinge region and CH2-CH3 region) from pKANTEX93, added to the C-terminus
Protocol: Each well was washed with PBS, and then 100 μL/well of 1% BSA/PBS was added at room temperature for 1 hour for blocking. Each well was washed with PBS again, and 50 μL/well of the RA15-7 culture supernatant was added, and allowed to react at room temperature for 1 hour. Each well was washed with 0.05% tween20/PBS, and 50 μL/well of FOLR1-Fc, FOLR2-Fc, FOLR3-Fc, and cynomolgus monkey FOLR1-Fc which were diluted in 1% BSA/PBS were added, and allowed to react at room temperature for 1 hour.
Each well was washed with 0.05% tween20/PBS, and then 50 μL/well of Goat anti-human IgG(H+L)-POD (American Qualex) which was diluted 2000-fold in 1% BSA/PBS was added and allowed to react at room temperature for 1 hour. Each well was washed with PBS, and then 50 μL/well of ABTS substrate solution was added, and allowed to react at room temperature. After sufficient color development was confirmed, 50 μL/well of 5% SDS solution was added to terminate the reaction, and absorbance at 415 nm was measured.

[7] = biological target: T2, FOLR1-mycHis; experiment: SPR (Biacore T100), antibody captured with Human Antibody Capture Kit, FOLR1-mycHis as analyte, 1:1 binding model
Protocol: as §4, §3

[8] = biological target: T3, Rat4-FOLR1-mycHis; experiment: ELISA, antigen coated at 10 µg/mL, antibody 14-10000 ng/mL; white circle indicates that reaction occurred
Protocol: as §1

[9] = biological target: T1, Rat2-FOLR1-mycHis; experiment: ELISA, antigen coated at 10 µg/mL; x indicates that no reaction occurred

T2 sequence (P15328 25-233): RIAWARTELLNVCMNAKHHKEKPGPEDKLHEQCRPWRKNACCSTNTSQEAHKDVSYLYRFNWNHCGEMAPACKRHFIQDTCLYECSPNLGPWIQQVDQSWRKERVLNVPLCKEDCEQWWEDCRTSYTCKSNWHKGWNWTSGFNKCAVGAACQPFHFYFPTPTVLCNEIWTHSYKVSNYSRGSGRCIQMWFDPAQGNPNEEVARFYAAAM
T3 sequence (chain, as listed by the source limits assumed): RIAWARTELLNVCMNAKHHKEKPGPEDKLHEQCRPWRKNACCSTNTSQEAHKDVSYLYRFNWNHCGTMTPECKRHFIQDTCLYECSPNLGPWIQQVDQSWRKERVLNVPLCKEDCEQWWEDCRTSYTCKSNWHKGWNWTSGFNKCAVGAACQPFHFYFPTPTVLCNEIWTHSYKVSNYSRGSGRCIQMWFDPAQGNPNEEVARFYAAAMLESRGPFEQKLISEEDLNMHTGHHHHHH
T1 sequence (chain, as listed by the source limits assumed): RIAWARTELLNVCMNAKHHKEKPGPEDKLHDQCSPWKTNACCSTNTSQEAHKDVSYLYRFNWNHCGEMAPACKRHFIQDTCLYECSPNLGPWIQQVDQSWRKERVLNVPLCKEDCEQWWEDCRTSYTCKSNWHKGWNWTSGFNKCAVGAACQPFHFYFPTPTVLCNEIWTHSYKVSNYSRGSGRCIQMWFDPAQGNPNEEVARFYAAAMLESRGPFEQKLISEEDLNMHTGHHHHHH
T5 sequence (chain, as listed by the source): as the sequence (P15328 25-233) above, with I2T, W4R, R37K, A146P, H171Y counted along it
T4 sequence (P15328 other isoform, or with tags, fused parts or gaps limits assumed): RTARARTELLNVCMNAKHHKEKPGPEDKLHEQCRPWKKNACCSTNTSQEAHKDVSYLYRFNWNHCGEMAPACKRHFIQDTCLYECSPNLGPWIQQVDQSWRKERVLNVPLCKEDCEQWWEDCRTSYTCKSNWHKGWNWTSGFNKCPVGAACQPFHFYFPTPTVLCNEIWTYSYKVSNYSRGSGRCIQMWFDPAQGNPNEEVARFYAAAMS

binding result [1]: no binding (tested: up to 10000 ng/mL) | Kd [2]: 0.65 nM | koff [2]: 0.00108 s⁻¹ | binding result [3]: binds
B1: HuRA15-7CTAcc antibody (antibody, human IgG1, V domains shown)
VH: EVQLVESGGGLVQPGGSLRLSCAASGFTFTDFYMNWVRQPPGKAPEWLGFIRNKANGYTTEFNPSVKGRFTISRDNSKNSLYLQMNSLKTEDTATYYCARTLYGYAYYYVMDAWGQGTLVTVSS
VL: DIQMTQSPSSLSASLGDRVTITCRTSEDIFRNLAWYQQKPGKAPKLLIYDTNRLADGVPSRFSGSGSGTDYTLTISSLQPEDFATYFCQQYDNYPLTFGQGTKLEIK
notes: Defucosylated, made in CHO/Ms704 cells; also called CDC enhancement technology-applied defucosylated HuRA15-7CT

binding result [4]: binds | Kd [5]: 1.9 nM | binding result [6]: binds
B2: RA15-7 antibody (antibody, V domains shown)
VH: EVKLLESGGGLVQPGGSMRLSCAASGFTFTDFYMNWIRQPAGKAPEWLGFIRNKANGYTTEFNPSVKGRFAISRDNTQNMLYLQMNTLRAEDTATYYCARCLYGYAYYYVMDAWGQGTSVTVSS
VL: DIQMTQSPASLSASLGETVTIECRTSEDIFRNLAWYQQRPGNSPQLLIYDTNRLADGVPSRFSGSGSGTQYSLKINSLQSEDVAGYFCQQYDNYPLTFGSGTKLEIK
notes: also called antibody contained in the RA15-7 culture supernatant; culture supernatant of hybridoma RA15-7 clone

Kd [7]: 0.57 nM | koff [7]: 0.001 s⁻¹ | binding result [8]: binds | binding result [9]: no binding (tested: up to 10000 ng/mL)
B3: ChRA15-7Acc antibody (antibody, human IgG1, V domains shown)
VH: EVKLLESGGGLVQPGGSMRLSCAASGFTFTDFYMNWIRQPAGKAPEWLGFIRNKANGYTTEFNPSVKGRFAISRDNTQNMLYLQMNTLRAEDTATYYCARCLYGYAYYYVMDAWGQGTSVTVSS
VL: DIQMTQSPASLSASLGETVTIECRTSEDIFRNLAWYQQRPGNSPQLLIYDTNRLADGVPSRFSGSGSGTQYSLKINSLQSEDVAGYFCQQYDNYPLTFGSGTKLEIK
notes: Defucosylated, made in CHO/Ms704 cells; also called CDC enhancement technology-applied defucosylated ChRA15-7; rat/human chimeric RA15-7
